Positions count from the first letter of the chain named. Where two headings read alike, the source gives them in different places.
B1: Dupilumab (antibody, V domains shown)
VH: EVQLVESGGGLEQPGGSLRLSCAGSGFTFRDYAMTWVRQAPGKGLEWVSSISGSGGNTYYADSVKGRFTISRDNSKNTLYLQMNSLRAEDTAVYYCAKDRLSITIRPRYYGLDVWGQGTTVTVSS
VL: DIVMTQSPLSLPVTPGEPASISCRSSQSLLYSIGYNYLDWYLQKSGQSPQLLIYLGSNRASGVPDRFSGSGSGTDFTLKISRVEAEDVGFYYCMQALQTPYTFGQGTKLEIKR
B2: murine monoclonal antibody 25G7 (antibody, V domains shown)
VH: EVQLVESGGGLVKPGGSLKLSCAASGFTFSDYGMHWVRQAPEKGLEWVAFISSGSSIIYYADIVKGRSTISRDNAKNTLFLQMTSLRSEDTAMYYCTRGNKRGFFDYWGQGTILTVSS
VL: QIVLTQSPALMSASPGEKVTMTCNASSSVSYMYWYQRKPRSSPKPWIYLTSNLASGVPVRFSGSGSGTSYSLTISSMEAEDAATYYCQQWRSNPPMLTFGSGTKLEVK
B3: human-mouse chimeric antibody 25G7-C (antibody, V domains shown)
VH: B2 VH
VL: B2 VL
B4: affinity-matured humanized antibody hu25G7-A (antibody, human IgG4 S228P, kappa, V domains shown)
VH: B2 VH with K13Q, K19R, E42G, F80Y, T84N, S88A, M93V, I113L, L114V
VL: EIVLTQSPATLSLSPGERATLSCRASSSVPYMYWYQQKPGQAPRLLIYLTSNLASGIPARFSGSGSGTDFTLTISSLEPEDFAVYYCQQWRAYPPMLTFGGGTKVEIKR
B5: affinity-matured humanized antibody hu25G7-B (antibody, human IgG4 S228P, kappa, V domains shown)
VH: B2 VH with K13Q, K19R, E42G, F80Y, T84N, S88A, M93V, I113L, L114V
VL: EIVLTQSPATLSLSPGERATLSCRASPGVPPLAWYQQKPGQAPRLLIYLASSRPSGIPARFSGSGSGTDFTLTISSLEPEDFAVYYCQQWRSNPPMLTFGGGTKVEIKR
B6: humanized antibody hu25G7 (with VH-c heavy chain and VL-a light chain) (antibody, human IgG4 S228P, kappa, V domains shown)
VH: B2 VH with K13Q, K19R, E42G, T78S, F80Y, T84N, S88A, M93V, I113L, L114V
VL: B4 VL with R24N, P30S, A92S, Y93N
B7: human-mouse chimeric antibody 7B10-C (antibody, V domains shown)
VH: QVQLQQPGTELLKPGASVSLSCKASGYTFTSYWMHWVKQRPGQGLEWIGLIHPNSDTTKFSENFKTRATLTIDKSSSTAYMKLSSLTSEDSAVYYCAKSKIITTIVARHWYFDVWGTGTTVTVSS
VL: DIVLTQSPPSLAVSLGQRATISCKASQSVDYGGDSYMNWYQQKLGQPPKVLIYAASNLESGIPARFSGSGSGTDFTLNIHPVEEEDVATYYCQHSNENPPTFGGGTKLEIK
B8: mouse monoclonal antibody 7B10 (antibody, V domains shown)
VH: B7 VH
VL: B7 VL
B9: humanized antibody hu7B10 (with VH-b heavy chain and VL-b light chain) (antibody, human IgG1, kappa, V domains shown)
VH: EVQLVQSGAEVKKPGASVKVSCKASGYTFTSYWMHWVRQAPGQGLEWMGLIHPNSDTTKFSENFKTRVTMTIDTSISTAYMELSRLRSDDTAVYYCAKSKIITTIVARHWYFDVWGQGTTVTVSS
VL: DIVLTQTPLSLSVTPGQPASISCKASQSVDYGGDSYMNWYLQKPGQPPQLLIYAASNLESGVPDRFSGSGSGTDFTLKISRVEAEDVGVYYCQHSNENPPTFGGGTKVEIKR

Tests used:
Assay in all cases: cell-based or functional assay
[1] = molecular target: T1, human IL-4R on cells (HEK-Blue IL-4 cells, TF-1 cells) (human, UniProt P24394 26-825)
[2] = molecular target: T1, human IL-4R on cells (HEK-Blue IL-4 …); remark: listed apart in the source
[3] = molecular target: T1, human IL-4R on cells (HEK-Blue IL-4 …); remark: listed apart in the source
[4] = molecular target: T1, human IL-4R on cells (HEK-Blue IL-4 …); remark: listed apart in the source

Binder | Inhibiting the proliferation of TF-1 cell by IL-4 (IC50) [1] | blocking the binding of HEK293-Blue IL-4 cell (to IL-4) (IC50) [1] | Inhibiting the proliferation of TF-1 cells by IL-4 (IC50) [2] | blocking of the binding of HEK293-Blue IL-4 cell (to IL-4) (IC50) [2] | Inhibiting the proliferation of TF-1 cells by IL-4 (IC50) [3] | blocking the binding of HEK293-Blue IL-4 cell (to IL-4) (IC50) [3] | Inhibiting the proliferation of TF-1 cell by IL-13 (IC50) [4] | Inhibiting the proliferation of TF-1 cells by IL-4 (IC50) [4] | blocking the binding of HEK293-Blue cells (with IL-4) (IC50) [4] | blocking the binding of HEK293-Blue cells (with IL-13) (IC50) [4]
B1 | 0.491 µg/mL | 0.000667 µg/mL | 0.102 µg/mL | 0.00507 µg/mL | 0.207 µg/mL | 0.00324 µg/mL | 0.0181 µg/mL | 0.101 µg/mL | 0.0125 µg/mL | 0.0148 µg/mL
B2 | – | – | 0.0513 µg/mL | 0.000975 µg/mL | – | – | – | – | – | –
B3 | – | – | – | – | 0.0203 µg/mL | 0.00202 µg/mL | – | – | – | –
B4 | – | – | – | – | – | – | 0.0132 µg/mL | 0.0837 µg/mL | 0.00649 µg/mL | 0.01 µg/mL
B5 | – | – | – | – | – | – | 0.0137 µg/mL | 0.051 µg/mL | 0.0066 µg/mL | 0.00838 µg/mL
B6 | 0.0296 µg/mL | 0.000943 µg/mL | – | – | – | – | – | – | – | –
B7 | – | – | – | – | 0.0464 µg/mL | 0.00903 µg/mL | – | – | – | –
B8 | – | – | 0.418 µg/mL | 0.0798 µg/mL | – | – | – | – | – | –
B9 | 0.112 µg/mL | 0.00687 µg/mL | – | – | – | – | – | – | – | –
